From the nanobody polyreactivity screen of Harvey et al. (2022)

Test: yeast display, Sf9 membrane polyspecificity reagent, FACS + sequencing; frameworks hold sequencing errors
Method in brief: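 In a synthetic yeast display library (Saccharomyces cerevisiae BJ5465), nanobody expression was induced with galactose for 36–48 hours. FACS gates were set low and high (top ~1%) using anti-HA fluorescence for expression and streptavidin fluorescence for binding of the Sf9 membrane reagent. Each polyreactivity label is drawn from the gate of origin.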

Sequence	polyreactivity (PSR sort gate)
QVQLVESGGGLVQAGGSLRLSCSASGRIFSPYAMGWYRQAPGKERELVAAISWRGSSTYYADSVKGRFTISPDNAKNTVYLQMNSLKPEDTAVYYCAAPSSKYWGQGTQVTVSS	low polyreactivity
QVQLVESGGGLVQAGGSLRLSCSASGRIFSTYAMGWYRQAPGKERELVAAINKIGGSTYYADSVKGRFTISRDNAKNTVYLQMNSLKPEDTAVYYCAADAPYYPVRRYYYWGQGTQVTVSS	low polyreactivity
QVQLVESGGGLVQAGGSLRLSCSASGRILYSYSMGWYRQAPGKEREFVAAIRRSGGSTYYADSVKGRFTISRDNAKNTVYLQMNSLKPEDTAVYYCAAGRRYSGSYDYWGQGTQVTVSS	high polyreactivity
QVQLVESGGGLVQAGGSLRLSCSASGRTFANYAMGWYRQAPGKERELVAAISSGGNTYYADSVKGRCTISRDNAKNTVYLQMNSLKPEDTAVYYCAAQPYYYFDEYTQYDYWGQGTQVTVSS	high polyreactivity
QVQLVESGGGLVQAGGSLRLSCSASGRTFATNAMGWYRQAPGKERELVAAISGSGGRTYYADSVKGRFTISRDIAKNTVYLQMNSLKPEDTAVYYCAAQKVPYRATNYYYWGQGTQVTVSS	high polyreactivity
QVQLVESGGGLVQAGGSLRLSCSASGRTFDVYAMGWYRQAPGKERELVATIRSDGSTTYADSVKGRFTISRDNAKNTVYLQMNSLKPEDTAVYFCAADFRSGFSSSTTPVQSDWGQGTQVTVSS	low polyreactivity
QVQLVESGGGLVQAGGSLRLSCSASGRTFGYNAMGRYRQEPGKERELVAAINWSGASTYYADSVKGRFTISRDNAKNTVYLQMNSLKPEDTAVYYCAADYSYIYGFDYWGQGTQVTVSS	low polyreactivity
QVQLVESGGGLVQAGGSLRLSCSASGRTFSSNAMGWYRKAPGKERELVAAITWSGGTTYYADSVKGRFTISRDNAKNTVYLQMNSQKPEDTAVYYCNAKRRGYTASVGYWGQGTQVTVSS	high polyreactivity
QVQLVESGGGLVQAGGSLRLSCSASGRTNWLNAMGLYRQAPGKERELVATISSSSGSTTYADSVKGRFTISRDNAKNTVYLQMNSLKPEDTAVYYCNVDDPFYSGVVEFDYWGQGTQVTVSS	low polyreactivity
QVQLVESGGGLVQAGGSLRLSCSASGSIFGFYAMGWYRQEPGKERELVAAIDSGDSTNYADSVKGRFTISRDNAKNTVYLQMNSLKPEDTAVYYCNARYTLFARYGYDYWGQGTQVTVSS	low polyreactivity
QVQLVESGGGLVQAGGSLRLSCSASGSIFGSYAMGWYRQAPGKERELVARINTRGGSTYYADSVKGRFTISRDNAKYTVYIQMNSLKPADTAVYYCAKERRASVVRYDYWGQGTQVTVSS	low polyreactivity
QVQLVESGGGLVQAGGSLRLSCSASGSIFPFNAMGWYRQAPGKERELVAAIRWSDGRTYYADSVKGRFTISRDNAKNTVYLQMNSLKPEDTAVYYCAAKSYWGQGTQVTVSS	high polyreactivity
QVQLVESGGGLVQAGGSLRLSCSASGSIFRYNAMGWYRQAPGKERELVAGITSGGSTNYADSVKGRFTISRDNAKNTVYLQMNSLKPEDTAVYYCATGTRSYYRWWRLMNYWGQGTQVTVSS	high polyreactivity
QVQLVESGGGLVQAGGSLRLSCSASGSIIYANAMGWYRPAPGKEREFVATITDSGAITYYADSVKGRFTISRDNAKNTVYLQMNSLKPEDTAVYYCNKDLVVYYVPTHDYDYWGQGTQVTVSS	low polyreactivity
QVQLVESGGGLVQAGGSLRLSCSASGSISHYAMGWYRQAPGKERELVAAISRRGGSTYYADSVKGRFTISRDNAKNTVYLQKNSLKPEDTAVYYCNKATSYFTVRGYDYCGQGTQVTVSS	high polyreactivity
QVQLVESGGGLVQAGGSLRLSCSASGSTFHRYAMGWYIQAPGKERELVARINGSGGSTYYADSVKGRFTISRDNAKNTVYLQMNSLKPEDSAVYYCAADGLYYTYGYDYWGQGTQVTVSS	low polyreactivity
QVQLVESGGGLVQAGGSLRLSCSASGSTFRWNAMGWYRQAPGKERELVASITSGGSTNYADSVKGRFTMSRDNAKNTVYLQLNSLKPEDTAVSYCNADVRRYSNYVWLYDYWGQGTQVTVSS	low polyreactivity
QVQLVESGGGLVQAGGSLRLSCSASGSTLAKYAMGWYRQAPGKERELVAAISWSGGRTYYADSVKGRFTISRDNAKNTVYLPMNSLKPEDTAVYYGAARALSSRTYHDDYWGQGTQVTVSS	high polyreactivity
QVQLVESGGGLVQAGGSLRLSCSATGFIFYRYAMGWYRQAPGKERELVAAISSSGGSTYYADSVKGRFTISRDNAKTTVSLQMNSLKPEDTAVYYCNKRPQQYRPGYDYWGQGTQVTVSS	high polyreactivity
QVQLVESGGGLVQAGGSLRLSCSAYGLILRTYGMGWYRQAPGKERELVAVISSGGSTYYADSVKGRFTISRDNEKNTVYLQMNSLKPEDTAVYYCAVRSSWYEGDYWGQGTQVTVSS	low polyreactivity
QVQLVESGGGLVQAGGSLRLSCSDSGFIYRMYAMGWYRQAHGKETELVSAISSDASTNYADSVKGRFTISRDNAKNTVYLQMNSLKPEDTAVYYCAAAVKRGYAQSFISDGYGYWGQGTQVTVSS	low polyreactivity
QVQLVESGGGLVQAGGSLRLSCSPSGSILYGNAMGWYRQAPGKERELVAAITSGGSTYYADSVKGRFTISRDNAKNTVYLQMNSLKPEDTAVYYCNTVWATKGDYWGHGTQVTVSS	high polyreactivity

Sequence	polyreactivity (PSR sort gate)
QVQLVESGGGLVQAGGSLRLSCSSSGRIFNDYAMGWYRKAPGKERELVATYADSEKGRFTISRYTAKKTVYLQMNSLKPEDTAVYYCAADFPSFPDFRPEYDYWGQGPQVTVSS	low polyreactivity
QVQLVESGGGLVQAGGSLRLSCTASGFTFVYYAMGWYRQAPGKERELVASISRSGGSTYYADSVKGRFTISRDNAKNTVYLQMNSLKPEDTAVYYCNARYGRTALLDYWGQGTQVTVSS	high polyreactivity
QVQLVESGGGLVQAGGSLRLSCTASGFTSRIYAMGWYRQAPVKERELVAAITRGVSTNYSDSVKGRFTISRDNAKNTVYLQMNSLKPEDTAVYYCAARTSGSYPYRTINEYWGQGTQVTVSS	high polyreactivity
QVQLVESGGGLVQAGGSLRLSCVASGRTFATYTLGWYRPAPGKERELVAAITTSGGTYYADSVKGRFTISRDNAKNTVYLQMNSLKPEDTAVYYCANVSYYTSAPWYYYWGQGTQVTVSS	high polyreactivity
QVQLVESGGGLVQAGGSLRLSCVPTDMGWYRQAPGKERELVATISLSDGNTYYADSVKGRFTISRDNAKNTVYLQMNSLKPEDTAVYYCNALHTWHQTYDYWGQCTQVTVSS	low polyreactivity
QVQLVESGGGLVQAGGSLRLSFAASGFTFCIYAMGWYRQAPGKERELVAAINVSEGSTYYADSVKGRFTISRDNAKNTVYLQMNSLKPEDTAVYYCDAYLYDTIYTSYREYDYWGQGTQVTVSS	low polyreactivity
QVQLVESGGGLVQAGGSLRLSFAASGFTFQWYGMGWSRQAPGKERELVAAINYSGGSTYYADSVKGSFTLSRDNAKNTVYLQMNSLKPEDTAVYYCAAEFYSWPWLRLAPWSMDYWGQGTQVTVSS	high polyreactivity
QVQLVESGGGLVQAGGSLRLSFAASGFTFRLYAMGWYRQAPGKERELVAAITSSSGSTYYADSVKGRFTISRDNAKNTVYLQMNSLKPEDTAVYYCNADRGDSSRRYGYWGQGTQVTVSS	high polyreactivity
QVQLVESGGGLVQAGGSLRLSFAASGFTFRNYAKGWYRQAPGKERELVATISRSGCSTYYADSVKGRFTISRDNAKNTVYLQMNSLKPEDTAVYYCAAKTILWKYYPYYYVTYDYWGQGTQVTVSS	high polyreactivity
QVQLVESGGGLVQAGGSLRLSFAASGGIFWHYTRGWYRQAPGKERELVAAITRRGGSTYYADSVKGRFTISRDNAKNTVYLQMNSLKPEDTAVYYCAADFLPQSYNWYDYWGQGTQVTVSS	low polyreactivity
QVQLVESGGGLVQAGGSLRLSFAASGLIFGYNAMGWYRQAPGTERELVAAISRRGTSTYYADSVKGRFTISRDNAKNTVYLQMNSLKPEDTAVYYCATYGVNPPGVEEYNYWGQGTQVTVSS	high polyreactivity
QVQLVESGGGLVQAGGSLRLSFAASGLIFPSYTMGWYRQAPGNYGELVAGINSGGSTNYAESVMGRFTISRDIAKNTDYLQMNSQKAEHTAVYYCAKDNNYYWYVSPRDYWGQGTQVTVSS	low polyreactivity
QVQLVESGGGLVQAGGSLRLSFAASGLTLYKNGMGWYRQAPGKETELVAVISRSGGRTYYADSVQGRFTISRDNAKNTVYLQMNSLKPEDTAVYYCAARQYGPRYTYYYWGQGTQVTVSS	high polyreactivity
QVQLVESGGGLVQAGGSLRLSFAASGNIFTFNAMGLYRQATGKDRELDAAIRSGGSTNYADSVKGRFTISRDNAKNTVDLQMNSLKPEDTAVYYCAAKRYVQGYVYRYGYWGQGTQVTVSS	high polyreactivity
QVQLVESGGGLVQAGGSLRLSFAASGQTFRWNAMGWYRQAPGKERELFAAISRGDRTNYADSVKGRFTISRDNAKNTVYLQMNSLNPEDTAVYYCAKTYQTNYYNGTWGVTSYGYWGQGTQVTVSS	high polyreactivity
QVQLVESGGGLVQAGGSLRLSFAASGRIIRGYAMGRDRQAPGKERELVAAINGGDSTFADSVKGRFTISRDNAKNTVYLQMNSLKPEDTAVYYCAAAHYFLGPQGASFYYWGQGTQVTVSA	low polyreactivity
QVQLVESGGGLVQAGGSLRLSFAASGRMFTGYAMGWYRQAHGKERELVADITSDGGTYYADSVKGRFTISRDNAKNSVYLQMNSLKPEDTAVYYCAAPRVVFGSSGEDDHWGQGTQVTVSS	low polyreactivity
QVQLVESGGGLVQAGGSLRLSFAASGRTFRYYAMGWYRQAPGKERELVAAISGRGGSTYYADSVKARFTISRDNAKNSVYLQMNRQKPEDTAVYYCAASFYSIRYDYWGQGTQVTVSS	high polyreactivity
QVQLVESGGGLVQAGGSLRLSFAASGRTFVLYTMGWYRQAPGKERELVAAISVGGALTYYADSVRGRFTISRDNAKNTVYLQMNSLKPEDSAVYYCAARRHSRVKYRDYWGQGTQVTVSS	high polyreactivity
QVQLVESGGGLVQAGGSLRLSFAASGRTFYIYAMGLYRQDPGKEREMVAAITYGGGRTFYADSVKGRFTISRDNAKYTVYLQMNSLKPEDTAVYYCAKTDTYPRYGRGYDYWGQGTQVTVSS	high polyreactivity
QVQLVESGGGLVQAGGSLRLSFAASGSIFLFNAMGWYRQAPGKERELVAAITSPTARTYYADSVKGRFTISRDNAKNTVYLQMNSLKPEDTAVYYCAARYRYAYGYGRGYSWGQGTQVTVSS	high polyreactivity
